The source of these data is publication PMC8158685, “MexAB-OprM Efflux Pump Interaction with the Peptidoglycan of Escherichia coli and Pseudomonas aeruginosa” (International Journal of Molecular Sciences, 2021).

The labels stand for the following.
B1: OprM (wild type, full-length) (natural protein)
chain: CSLIPDYQRPEAPVAAAYPQGQAYGQNTGAAAVPAADIGWREFFRDPQLQQLIGVALENNRDLRVAALNVEAFRAQYRIQRADLFPRIGVDGSGTRQRLPGDLSTTGSPAISSQYGVTLGTTAWELDLFGRLRSLRDQALEQYLATEQAQRSAQTTLVASVATAYLTLKADQAQLQLTKDTLGTYQKSFDLTQRSYDVGVASALDLRQAQTAVEGARATLAQYTRLVAQDQNALVLLLGSGIPANLPQGLGLDQTLLTEVPAGLPSDLLQRRPDILEAEHQLMAANASIGAARAAFFPSISLTANAGTMSRQLSGLFDAGSGSWLFQPSINLPIFTAGSLRASLDYAKIQKDINVAQYEKAIQTAFQEVADGLAARGTFTEQLQAQRDLVKASDEYYQLADKRYRTGVDNYLTLLDAQRSLFTAQQQLITDRLNQLTSEVNLYKALGGGWNQQTVTQQQTAKKEDPQA
notes: OprM, outer membrane factor of the MexAB-OprM efflux pump, Pseudomonas aeruginosa; wild type, 'OprM full-length'; The pure protein was reloaded on Ni-NTA for the detergent exchange, so the His tag was probably still on it; Natural OprM is a lipoprotein whose signal peptide is cut on export; also called OMF; outer-membrane factor channel; source: E. coli C43 deleted of acrB, pBAD33, purified …
B2: MexA (natural protein)
chain: CGKSEAPPPAQTPEVGIVTLEAQTVTLNTELPGRTNAFRIAEVRPQVNGIILKRLFKEGSDVKAGQQLYQIDPATYEADYQSAQANLASTQEQAQRYKLLVADQAVSKQQYADANAAYLQSKAAVEQARINLRYTKVLSPISGRIGRSAVTEGALVTNGQANAMATVQQLDPIYVDVTQPSTALLRLRRELASGQLERAGDNAAKVSLKLEDGSQYPLEGRLEFSEVSVDEGTGSVTIRAVFPNPNNELLPGMFVHAQLQEGVKQKAILAPQQGVTRDLKGQATALVVNAQNKVELRVIKADRVIGDKWLVTEGLNAGDKIITEGLQFVQPGVEVKTVPAKNVASAQKADAAPAKTDSKG
notes: MexA, periplasmic membrane fusion protein of the MexAB-OprM efflux pump, Pseudomonas aeruginosa; wild type; The pure protein was reloaded on Ni-NTA for the detergent exchange, so the His tag was probably still on it; Natural MexA is a lipoprotein whose signal peptide is cut; also called MFP; periplasmic membrane fusion protein; source: for one experiment exchanged into C12E8 on Ni-NTA

Series [1] deals with the molecule itself. Put plainly: SEC; Superdex 200 gel filtration in TBS (20 mM Tris-HCl pH 8, 150 mM NaCl) with 0.05% DDM, last step of the purification. On the technique in general: Size exclusion chromatography separates by hydrodynamic size, large species first.
The target in the series “MexA” is B2. Put plainly: pull-down; PG of P. aeruginosa, DDM; MexA and OprM mixed at 3:1 compared with 2:1; ratio in the retained complex from relative band intensities on SDS-PAGE. The settings on record: both partners purified.
In series [2] the target is T1, OprM deleted of the flexible C-terminus residues 473-485 (OprMΔCter) (P. aeruginosa (PAO1 genome as template), UniProt Q51487 18-472).
T1 construct: signal peptide in the construct (forward primer begins at the ATG of the precursor); OprM of Pseudomonas aeruginosa PAO1 without its last 13 residues 473-485; PCR fragment NdeI-XmaI in pBAD33; also called OprM∆Cter; source: E. coli C43 deleted of acrB, pBAD33, purified (Ni-NTA, Superdex 200) in DDM
T1 sequence (looked up): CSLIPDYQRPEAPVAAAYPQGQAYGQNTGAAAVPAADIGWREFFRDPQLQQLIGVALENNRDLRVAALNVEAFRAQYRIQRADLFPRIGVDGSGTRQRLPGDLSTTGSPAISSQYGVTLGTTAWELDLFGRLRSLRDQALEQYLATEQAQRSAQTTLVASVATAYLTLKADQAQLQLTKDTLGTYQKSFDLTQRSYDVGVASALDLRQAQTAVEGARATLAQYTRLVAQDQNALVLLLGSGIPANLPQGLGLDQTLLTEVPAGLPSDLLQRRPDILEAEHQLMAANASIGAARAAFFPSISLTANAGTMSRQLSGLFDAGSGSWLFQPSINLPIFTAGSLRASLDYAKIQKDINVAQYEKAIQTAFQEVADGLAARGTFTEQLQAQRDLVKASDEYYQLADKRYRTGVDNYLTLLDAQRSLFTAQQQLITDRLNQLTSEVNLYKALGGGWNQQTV
Put plainly: pull-down; purified insoluble PG of P. aeruginosa PAO1 as the pelleted matrix; MexA and OprM pre-mixed 2:1 (PG:MexA:OprM 100:2:1); 20 mM Tris-HCl pH 8.0, 300 mM NaCl, 0.05% DDM; 1 h room temperature; three washes; pellet on SDS-PAGE; proteins released by lysozyme. The settings on record: both partners purified.

In series [3] the target is B1. Put plainly: pull-down; purified insoluble peptidoglycan (PG) of E. coli C43 as the pelleted matrix; MexA and OprM pre-mixed 2:1 (PG:MexA:OprM 100:2:1); 20 mM Tris-HCl pH 8.0, 300 mM NaCl, 0.05% DDM; 1 h room temperature; three washes; pellet on SDS-PAGE; proteins released by lysozyme. The settings on record: both partners purified.

Take B1: the “stoichiometry N” value is 3 in series [1] and 2 MexA:OprM in the series with MexA.
With B2, the binding result in series [2] and in series [3] was “binds” each time.

The stoichiometry N is a count of units in the complex or per binding partner.
